The values that follow come from patent US20180231548.

For data set [1], the target named is T1, Methyl Red (MR)-AAPV-NBD-UBI29-41.
T1 chain: AAPVKTGRAKRRMQYNRR

B1: human neutrophil elastase (protein)
chain: IVGGRRARPHAWPFMVSLQLRGGHFCGATLIAPNFVMSAAHCVANVNVRAVRVVLGAHNLSRREPTRQVFAVQRIFENGYDPVNLLNDIVILQLNGSATINANVQVAQLPAQGRRLGNGVQCLAMGWGLLGRNRGIASVLQELNVTVVTSLCRRSNVCTLVRGRQAGVCFGDSGSPLVCNGLIHGIASFVRGGCASGLYPDAFAPVAQFVNWIDSIIQ
Consider B1, for which the “bacterial labelling by NBD after cleavage of the probe; confocal images of a co-culture of bacteria and human neutrophils” value in data set [1] is “These images confirm the ability of the probe to be cleaved by neutrophil derived HNE and to label bacteria”. The “fluorescence of the cleaved TAMRA compound (spectrophotometer) and NBD labelling of bacteria after cleavage” value with TAMRA-AAPV-NBD-PMX was “the fluorescence of the cleaved TAMRA compound increases in an elastase dependent manner and are inhibited with an elastase inhibitor such as sivelestat”.
